# Measurements as given in the supplement of paper PMC9112550, “Optimization of the antimicrobial peptide Bac7 by deep mutational scanning” (BMC Biology, 2022).
# Test system: Escherichia coli TOP10
# Experiment: shrunken log2 fold change of peptide-encoding DNA abundance (4.5 h post-induction vs induction); higher = less antimicrobial activity (less host growth inhibition)
# Conditions: time post-induction: 4.5 h; library: site-saturation at positions 5, 18, 19, 20
# 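Further: peptides expressed intracellularly from a pBAD plasmid library in pooled LB shake-flask culture, induced with 0.3% L-arabinose, DNA abundance read by NGS, three biological replicates, DESeq2 with apeglm shrinkage.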
row,Sequence,shrunken log2 fold change
1,RRIRNRPPRLPRPRPRPYRTPRP,-0.268
2,RRIRSRPPRLPRPRPRPKYDPRP,-0.0717
3,RRIRYRPPRLPRPRPRPIMKPRP,0.0367
4,RRIRSRPPRLPRPRPRPAWRPRP,0.567
5,RRIRQRPPRLPRPRPRPVMVPRP,0.11
6,RRIRTRPPRLPRPRPRPINKPRP,-0.322
7,RRIRWRPPRLPRPRPRPEKHPRP,0.39
8,RRIRMRPPRLPRPRPRPTAQPRP,0.819
9,RRIRARPPRLPRPRPRPHRNPRP,0.192
10,RRIRLRPPRLPRPRPRPFKQPRP,-0.0215
11,RRIRHRPPRLPRPRPRPTWGPRP,0.0618
12,RRIRKRPPRLPRPRPRPEDGPRP,1.9
13,RRIRMRPPRLPRPRPRPGNNPRP,-0.0591
14,RRIRMRPPRLPRPRPRPGNLPRP,0.0466
15,RRIRDRPPRLPRPRPRPVRVPRP,0.908
16,RRIRWRPPRLPRPRPRPKYCPRP,-0.245
17,RRIRARPPRLPRPRPRPTQMPRP,0.563
18,RRIRGRPPRLPRPRPRPLAMPRP,0.94
19,RRIRDRPPRLPRPRPRPGWHPRP,0.27
20,RRIRQRPPRLPRPRPRPHQYPRP,-0.237
21,RRIRSRPPRLPRPRPRPNNEPRP,-0.631
22,RRIRKRPPRLPRPRPRPSTQPRP,0.169
23,RRIRWRPPRLPRPRPRPEPFPRP,-0.0317
24,RRIRSRPPRLPRPRPRPALGPRP,0.505
25,RRIRTRPPRLPRPRPRPPEPPRP,0.416

row,Sequence,shrunken log2 fold change
1,RRIRIRPPRLPRPRPRPKIGPRP,-0.0343
2,RRIRFRPPRLPRPRPRPYDCPRP,0.0187
3,RRIRKRPPRLPRPRPRPHKAPRP,-0.0179
4,RRIRIRPPRLPRPRPRPKTFPRP,-0.0578
5,RRIRFRPPRLPRPRPRPTRPPRP,0.776
6,RRIRYRPPRLPRPRPRPILKPRP,-1.06
7,RRIRRRPPRLPRPRPRPYNCPRP,0.00861
8,RRIRERPPRLPRPRPRPYYRPRP,-0.165
9,RRIRERPPRLPRPRPRPAEVPRP,-0.0184
10,RRIRVRPPRLPRPRPRPPVNPRP,0.159
11,RRIRQRPPRLPRPRPRPLVIPRP,-0.682
12,RRIRTRPPRLPRPRPRPLKSPRP,-0.0242
13,RRIRCRPPRLPRPRPRPLHCPRP,-0.1
14,RRIRRRPPRLPRPRPRPWLMPRP,-0.185
15,RRIRWRPPRLPRPRPRPSHRPRP,-0.271
16,RRIRCRPPRLPRPRPRPQFFPRP,-0.433
17,RRIRRRPPRLPRPRPRPGDYPRP,-0.045
18,RRIRPRPPRLPRPRPRPRRMPRP,0.297
19,RRIRNRPPRLPRPRPRPKLYPRP,-0.289
20,RRIRERPPRLPRPRPRPAECPRP,-0.0953
21,RRIRWRPPRLPRPRPRPMLRPRP,0.0624
22,RRIRDRPPRLPRPRPRPETSPRP,-0.0166
23,RRIRFRPPRLPRPRPRPSQVPRP,-0.398
24,RRIRWRPPRLPRPRPRPPFGPRP,0.274
25,RRIRRRPPRLPRPRPRPQWTPRP,0.31

row,Sequence,shrunken log2 fold change
1,RRIRIRPPRLPRPRPRPVMLPRP,-0.776
2,RRIRHRPPRLPRPRPRPIDSPRP,-0.0116
3,RRIRDRPPRLPRPRPRPASFPRP,0.136
4,RRIRHRPPRLPRPRPRPIFKPRP,-0.195
5,RRIRFRPPRLPRPRPRPWSAPRP,-0.429
6,RRIRNRPPRLPRPRPRPKWGPRP,0.147
7,RRIRHRPPRLPRPRPRPQTKPRP,-0.0667
8,RRIRMRPPRLPRPRPRPHEWPRP,0.624
9,RRIRIRPPRLPRPRPRPFQDPRP,0.0408
10,RRIRFRPPRLPRPRPRPLLKPRP,-0.321
11,RRIRKRPPRLPRPRPRPAIQPRP,0.396
12,RRIRHRPPRLPRPRPRPVVGPRP,0.0224
13,RRIRDRPPRLPRPRPRPTRTPRP,0.246
14,RRIRSRPPRLPRPRPRPGGGPRP,0.908
15,RRIRERPPRLPRPRPRPAMKPRP,-0.0226
16,RRIRLRPPRLPRPRPRPHTDPRP,-0.223
17,RRIRGRPPRLPRPRPRPIDNPRP,0.186
18,RRIRHRPPRLPRPRPRPLHRPRP,-0.158
19,RRIRWRPPRLPRPRPRPQQEPRP,0.0149
20,RRIRARPPRLPRPRPRPRMTPRP,1.04
21,RRIRERPPRLPRPRPRPPRPPRP,0.64
22,RRIRIRPPRLPRPRPRPMQSPRP,0.0163
23,RRIRDRPPRLPRPRPRPLMTPRP,0.195
24,RRIRVRPPRLPRPRPRPADNPRP,-0.0365
25,RRIRSRPPRLPRPRPRPNYIPRP,-0.757

row,Sequence,shrunken log2 fold change
1,RRIRPRPPRLPRPRPRPQRNPRP,0.147
2,RRIRMRPPRLPRPRPRPNLNPRP,-0.0299
3,RRIRPRPPRLPRPRPRPQKAPRP,1.05
4,RRIRMRPPRLPRPRPRPPNKPRP,0.604
5,RRIRQRPPRLPRPRPRPMVDPRP,-0.00399
6,RRIRTRPPRLPRPRPRPQEAPRP,0.0871
7,RRIRMRPPRLPRPRPRPSLFPRP,0.136
8,RRIRERPPRLPRPRPRPECPPRP,0.0592
9,RRIRLRPPRLPRPRPRPLSEPRP,0.0386
10,RRIRPRPPRLPRPRPRPYWPPRP,-0.143
11,RRIRMRPPRLPRPRPRPYNSPRP,-0.22
12,RRIRYRPPRLPRPRPRPVMQPRP,-0.315
13,RRIRTRPPRLPRPRPRPQAMPRP,0.00573
14,RRIRHRPPRLPRPRPRPPEKPRP,-0.00804
15,RRIRDRPPRLPRPRPRPVNWPRP,0.188
16,RRIRPRPPRLPRPRPRPDRPPRP,-0.0807
17,RRIRLRPPRLPRPRPRPEIKPRP,-0.12
18,RRIRLRPPRLPRPRPRPISKPRP,-0.125
19,RRIRFRPPRLPRPRPRPDQVPRP,0.0246
20,RRIRARPPRLPRPRPRPPQPPRP,1.03
21,RRIRFRPPRLPRPRPRPLGVPRP,0.0349
22,RRIRMRPPRLPRPRPRPESDPRP,3.34
23,RRIRWRPPRLPRPRPRPTKWPRP,-0.126
24,RRIRKRPPRLPRPRPRPNTCPRP,0.0343
25,RRIRLRPPRLPRPRPRPYSPPRP,-0.299

row,Sequence,shrunken log2 fold change
1,RRIRYRPPRLPRPRPRPGGWPRP,0.645
2,RRIRKRPPRLPRPRPRPVYMPRP,-0.082
3,RRIRLRPPRLPRPRPRPACWPRP,0.498
4,RRIRHRPPRLPRPRPRPYNVPRP,-0.0512
5,RRIRPRPPRLPRPRPRPMMIPRP,0.0824
6,RRIRERPPRLPRPRPRPLTVPRP,-0.0383
7,RRIRGRPPRLPRPRPRPCDFPRP,0.102
8,RRIRSRPPRLPRPRPRPGVWPRP,0.74
9,RRIRMRPPRLPRPRPRPRQCPRP,0.594
10,RRIRERPPRLPRPRPRPLMNPRP,-0.336
11,RRIRGRPPRLPRPRPRPKIFPRP,0.288
12,RRIRCRPPRLPRPRPRPMLQPRP,0.0596
13,RRIRMRPPRLPRPRPRPEFMPRP,0.656
14,RRIRFRPPRLPRPRPRPGPEPRP,0.103
15,RRIRMRPPRLPRPRPRPFIGPRP,-0.0122
16,RRIRSRPPRLPRPRPRPVLEPRP,0.0953
17,RRIRARPPRLPRPRPRPSFVPRP,0.0934
18,RRIRYRPPRLPRPRPRPDVGPRP,-0.273
19,RRIRLRPPRLPRPRPRPNINPRP,-0.686
20,RRIRRRPPRLPRPRPRPMWIPRP,-0.137
21,RRIRVRPPRLPRPRPRPVSGPRP,0.0836
22,RRIRGRPPRLPRPRPRPWPVPRP,0.674
23,RRIRARPPRLPRPRPRPYKTPRP,-0.0275
24,RRIRTRPPRLPRPRPRPALSPRP,-0.0737
25,RRIRNRPPRLPRPRPRPTWLPRP,0.195

row,Sequence,shrunken log2 fold change
1,RRIRYRPPRLPRPRPRPCPGPRP,-0.0926
2,RRIRSRPPRLPRPRPRPCMAPRP,-0.182
3,RRIRIRPPRLPRPRPRPALVPRP,0.228
4,RRIRVRPPRLPRPRPRPHHKPRP,-0.477
5,RRIRDRPPRLPRPRPRPMKVPRP,-0.0768
6,RRIRARPPRLPRPRPRPYCLPRP,-0.729
7,RRIRFRPPRLPRPRPRPADIPRP,0.131
8,RRIRIRPPRLPRPRPRPAEEPRP,-0.084
9,RRIRARPPRLPRPRPRPIANPRP,0.103
10,RRIRWRPPRLPRPRPRPDKNPRP,0.142
11,RRIRRRPPRLPRPRPRPWLFPRP,0.383
12,RRIRWRPPRLPRPRPRPAFQPRP,0.62
13,RRIRVRPPRLPRPRPRPPTPPRP,0.548
14,RRIRDRPPRLPRPRPRPCYQPRP,-0.0177
15,RRIRRRPPRLPRPRPRPKAFPRP,-0.0104
16,RRIRIRPPRLPRPRPRPCSYPRP,-0.176
17,RRIRLRPPRLPRPRPRPEINPRP,-0.0201
18,RRIRQRPPRLPRPRPRPKTPPRP,-0.0134
19,RRIRVRPPRLPRPRPRPDECPRP,-0.00624
20,RRIRTRPPRLPRPRPRPPSIPRP,0.114
21,RRIRGRPPRLPRPRPRPWQDPRP,0.00455
22,RRIRTRPPRLPRPRPRPTWNPRP,-0.0206
23,RRIRQRPPRLPRPRPRPNHWPRP,-0.176
24,RRIRDRPPRLPRPRPRPCIFPRP,0.168
25,RRIRPRPPRLPRPRPRPISVPRP,-0.171
